Legend:
Type in all cases: cell-based, human
mir-675-5p [1] = test: ddPCR of all mature mir-675-5p sequences (TaqMan Advanced miRNA cDNA synthesis) in HEK293 cells
mir-675-5p [2] = test: TaqMan QRT-PCR of mature mir-675-5p from transfected constructs in HEK293 cells; settings: HEK293, 24 h post-transfection; for mir-675-5p levels compared to U6.mir-675: 23 mer mature mir-675-5p
Source text: (§1) RNA Extraction. RNA from HEK293 cells was extracted for Northern blot assay and QPCR. The miRVANA miRNA isolation kit (ThermoFisher Scientific) was used according to manufacturer's directions to extract total RNA encompassing small RNAs, such as miRNAs. To extract RNA from C57BL/6 skeletal muscles, cryopreserved muscles were crushed under suboptimal temperatures using liquid nitrogen and using mortar and pestle. Crushed muscles were then lysed using […] of miRVANA miRNA isolation kit lysis buffer, a TissueLyser and 1.0 mm zirconia beads (Biospec). Muscle was homogenized at 30 Hz for 30 sec with 10 sec rest. This was repeated 3 times.
(§2) TaqMan Gene Expression Assay. QRT-PCR was carried out to quantify the expression of pri-mir-675, mir-675-5p and mi405 using TaqMan probes (ThermoFisher Scientific). Experiments were started by eliminating genomic DNA from the RNA preparations, and then cDNA was generated using the High-Capacity cDNA Reverse Transcription Kit (Applied Biosystems) following manufacturer's instructions. Within the same cDNA reaction, 1×RT random hexamer primers were used to generate the cDNA for RPL13A, used as a reference gene, and for pri-mir-675. To generate the cDNA for mir-675, the RT mir-675 reverse primer provided by ThermoFisher Scientific was used. For mi405, the mi405 qPCR protocol was done as it was previously described [Wallace et al., Mol. Ther. Methods Clin. Dev. 8: 121-30 (2018)]. To quantify mir-675 and mi405 levels, RNA was extracted using the total RNA protocol for the mirVana miRNA Isolation Kit (Ambion) from HEK293 cells. cDNA was generated using the High-Capacity cDNA Reverse Transcription Kit (Applied Biosystems) using a mix of random hexamer primers and specific reverse primer for pri-mir-675 and mir-675-5p. For mi405, 200 nM of the stem-loop forming primer (5′-[…]-3′) (SEQ ID NO: 144) was also used for the RT step. A custom TaqMan assay (Applied Biosystems) including 1.5 μM of Forward primer (5′-[…]-3′) (SEQ ID NO: 145), 0.7 μM of Reverse primer (5′-GTGCAGGGTCCGAGGT-3′) (SEQ ID NO: 146), and 0.2 μM of mi405 probe (5′-6FAM-ATACGACGTCCAGGAT-3′) (SEQ ID NO: 147) was then run using the CFX Connect Real Time system apparatus (Bio-Rad). RPL13A (Mm02526700_g1; Applied Biosystems) served as the reference gene. The TaqMan gene expression assay consisted of using the TaqMan Gene Expression Master mix and TaqMan probes purchased from ThermoFisher Scientific. 1× of probe was mixed with 1× of the TaqMan Gene Expression Master mix (ThermoFisher Scientific), and with 20 ng of cDNA. The mir-675- and mi405-specific primers and probes were designed to quantify only the mir-675-5p and mi405 mature sequence (see TaqMan Gene Expression Master mix protocol).

DUX4 protein = test: Western blot of V5-tagged DUX4 protein in co-transfected HEK293 cells; settings: CMV.DUX4-FL/CMV.eGFP, HEK293, molar ratio 1 to 3, eGFP normalizer, relative to U6-milacZ, N = 3-8
pri-mir-675 = test: TaqMan QRT-PCR of pri-mir-675 from transfected constructs in HEK293 cells; settings: 24 h post-transfection
Source text: as §1, §2

| Molecule | fold change of all mature mir-675-5p sequences compared to U6.mir-675 (mir-675-5p [1]) [%] | mir-675-5p levels compared to U6.mir-675 (mir-675-5p [2]) [%] | Average inhibition efficiency (%) of DUX4 protein levels (DUX4 protein) | pri-mir-675 levels compared to U6.mir-675 (pri-mir-675) [%] | ratio of mir-675-5p/pri-mir-675 compared to U6.mir-675 (mir-675-5p [2]) [%] | Average inhibition efficiency (%) of DUX4 protein levels (DUX4 protein; listed as U6-mir-675H) |
| --- | --- | --- | --- | --- | --- | --- |
| U6.mir-675-2.3.1: mir-675 construct with modified 5' and 3' flanking sequences (nucleic acid) DNA: TCTAGAGATCCGACGCCGCCATCTCTAGGCCCGCGCCGGCCCCCTCGCACAGACTTGTGGGAGAAGCTCGGCTACTCCCCTGCCCCGGTTAATTTGCATATAATATTTCCTAGTAACTATAGAGGCTTAATGTGCGATAAAAGACAGATAATCTGTTCTTTTTAATACTAGCTACATTTTACATGATAGGCTTGGATTTCTATAAGAGATACAAATACTAAATTATTATTTTAAAAAACAGCACAAAAGGAAACTCACCCTAACTGTAAAGTAATTGTGTGTTTTGAGACTATAAATATCCCTTGGAGAAAAGCCTTGTTTGAATCACACTGCCCCAGGGTCTGGTGCGGAGAGGGCCCACAGTGGACTTGGTGACGCTGTATGCCCTCACCGCTCAGCCCCTGGGGATAACTCCTAATCACACTTTTTT | 187±40 | 241±29 | 58 ± 8 (N = 3) % | 274±49 | – | – |
| U6.mir-675H: mir-675 construct with modified flanking sequences and UA dinucleotide (nucleic acid) DNA: TCTAGAGATCCGACGCCGCCATCTCTAGGCCCGCGCCGGCCCCCTCGCACAGACTTGTGGGAGAAGCTCGGCTACTCCCCTGCCCCGGTTAATTTGCATATAATATTTCCTAGTAACTATAGAGGCTTAATGTGCGATAAAAGACAGATAATCTGTTCTTTTTAATACTAGCTACATTTTACATGATAGGCTTGGATTTCTATAAGAGATACAAATACTAAATTATTATTTTAAAAAACAGCACAAAAGGAAACTCACCCTAACTGTAAAGTAATTGTGTGTTTTGAGACTATAAATATCCCTTGGAGAAAAGCCTTGTTTGACCGTTTAAACCCCAGGGTCTGGTGCGGAGAGGGCCCACAGTGGACTTGGTGACGCTGTATGCCCTCACCGCTCAGCCCCTGGGGCGCACGCCAGTTTTTT | 201±38 | 774±93 | 89±6% | 256±37 | 303±57 | 89 ± 6 (N = 3) % |

Source: patent publication US20240093191A1, “COMPOSITIONS AND METHODS FOR TREATING DISEASE ASSOCIATED WITH DUX4 OVEREXPRESSION” (RESEARCH INSTITUTE AT NATIONWIDE CHILDREN'S HOSPITAL, priority 2021, published 2024)
